Test results as given in patent publication CN106117360A.

Molecular target: CD3 on Jurkat cells
Assay: flow cytometry, culture supernatant on Jurkat cells (negative control sdAb)

MFI: 115 MFI
Substance: NC-sdAb(相同形式的非相关性sdAb) (VHH)
